Laboratory results: patent publication US20200237928A1 (UNIVERSITY OF MIAMI, published 2020)
Side-chain parts run from the residue outwards. [ ]: non-standard residue; d: D form. Abu = CC[C@H](N)C(=O)O; Ahx = NCCCCCC(=O)O

Key:
[1] = molecular target: T1, recombinant mouse IL4Rα extracellular domain (Ile26-Arg233), cleaved by factor Xa from the IL4Rα/human IgG1 … (mouse, UniProt P16382 26-233); test: FACS; Alexa555-shRNA/4PD complexes titrated on IL4Rα-conjugated epoxybeads, 10 min at RT; apparent Kd; peptide conjugated to the dendrimer (4PD)
T1 construct: range 26-233; Factor Xa cleavage in the IEGRMD spacer may leave some spacer residues at the C-terminus; Covalently linked to M-450 epoxy beads; also called recombinant IL4Rα; IL4Rα conjugated epoxybeads
T1 sequence (looked up): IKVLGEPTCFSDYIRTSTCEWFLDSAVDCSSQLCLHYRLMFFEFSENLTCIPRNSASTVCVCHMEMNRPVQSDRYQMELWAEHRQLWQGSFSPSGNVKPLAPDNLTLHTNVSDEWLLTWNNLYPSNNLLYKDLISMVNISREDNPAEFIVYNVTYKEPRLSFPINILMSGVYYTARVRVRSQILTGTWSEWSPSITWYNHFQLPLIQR
Description: (§1) Epoxybeads were conjugated with recombinant IL4Rα and used as binding target of 4PD or of the targeting peptide. Briefly, the recombinant chimeric IL4Rα protein composed by the mouse IL4Rα (Ile26 Arg233) and the human IgG1 (Pro100 Lys330) linked by the IEGRMD spacer polypeptide and generated in the NSO myeloma cell line was purchased by R&D systems (Minneapolis, Minn., USA). The protein was treated for 24 hours with 1.5% w/w factor Xa (SIGMA. St. Louis, Mo., USA) in tris-HCl (20 mM) and NaCl (200 mM) to cleave the IL4Rα extracellular domain. Factor Xa was removed by the solution using the Factor Xa removal resin (QIAGEN, Valencia, Calif., USA) and following the manufacturer instruction. IgG-linker fraction was removed from the solution by using protein-A conjugated magnetic beads (Invitrogen, Carlsbad, Calif., USA). The purity obtained by this procedure assessed by SDS PAGE was higher than 95% with only trace of IgG (data not shown). The obtained IL4Rα fraction was linked to epoxy magnetic beads M-450 by an overnight (ON) incubation at room temperature (RT) of 20×10⁶ beads with 10 μg of protein in a final volume of 1 mL in a sodium phosphate buffer (pH:8.0). […] Correct conjugation was evaluated via FACs after labeling with an anti-IL4Rα antibody.
(§2) Next, the binding of the 4PD to the IL4Rα was evaluated. […] Beads were washed twice with PBS and the binding evaluated by FACS.

[2] = molecular target: T1, recombinant mouse IL4Rα extracellular …; test: FACS on IL4Rα-conjugated epoxybeads; 4PD against the FITC-peptide
Description: as §1, §2

B1: 4PD: G5 PAMAM dendrimer conjugated to the IL4Rα targeting peptide (acetyl)-LQRLFRAFR[Abu]LD[Ahx]C(amide), loaded with Alexa555-conjugated shRNA (other)
peptide: Ac-LQRLFRAFR[Abu]LD[Ahx]C([m‑maleimidobenzoyl-G5 PAMAM dendrimer])-NH2
modifications: also: several peptide copies on one G5 PAMAM dendrimer, complexed with Alexa555-labelled shRNA
notes: Not a plain protein: several copies of the peptide sit on a G5 PAMAM dendrimer (28,826 Da), complexed electrostatically with Alexa555-labelled scrambled shRNA; also called Alexa555-shRNA/4PD complexes; 4PD/Alexa555 complexes
Question: How did the Kd [1] turn out when B1 was run?
Answer: The Kd was 3000 nM.

Question: And the “fold increase of apparent Kd (avidity) against the free peptide” value [2]?
Answer: Its value is about 1000 times.
